Results as given in article PMC11098083.

Target: GST-Pol32 (Saccharomyces cerevisiae (budding …, UniProt P47110 1-350))
Assay: EMSA

GST-Pol32 (Saccharomyces cerevisiae, sequence (P47110 whole entry): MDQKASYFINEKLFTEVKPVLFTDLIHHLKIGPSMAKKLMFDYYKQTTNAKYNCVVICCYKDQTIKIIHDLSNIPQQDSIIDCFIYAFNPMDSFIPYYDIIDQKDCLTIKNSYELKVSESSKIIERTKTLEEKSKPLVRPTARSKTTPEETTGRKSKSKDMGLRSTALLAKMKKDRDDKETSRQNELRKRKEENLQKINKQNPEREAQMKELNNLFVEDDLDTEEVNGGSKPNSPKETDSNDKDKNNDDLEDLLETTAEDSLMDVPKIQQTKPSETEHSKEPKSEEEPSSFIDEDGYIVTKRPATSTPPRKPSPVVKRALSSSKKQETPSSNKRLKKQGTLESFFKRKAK

B1: 58bp DNA (dsDNA)
DNA 1: ATACATTTTATGACTGGAAACTTTTTTGTACAACACTCCAATAAACATTTTGATTTTA
DNA 2: TAAAATCAAAATGTTTATTGGAGTGTTGTACAAAAAAGTTTCCAGTCATAAAATGTAT
  binding result: binds
